{"source": "paper PMC3062166", "about": "(Molecular cell, 2011)", "binders": {"B1": {"name": "untagged WAC (baculovirus) (natural protein, UniProt Q9BTA9 1-647, looked up)", "chain": "MVMYARKQQRLSDGCHDRRGDSQPYQALKYSSKSHPSSGDHRHEKMRDAGDPSPPNKMLRRSDSPENKYSDSTGHSKAKNVHTHRVRERDGGTSYSPQENSHNHSALHSSNSHSSNPSNNPSKTSDAPYDSADDWSEHISSSGKKYYYNCRTEVSQWEKPKEWLEREQRQKEANKMAVNSFPKDRDYRREVMQATATSGFASGMEDKHSSDASSLLPQNILSQTSRHNDRDYRLPRAETHSSSTPVQHPIKPVVHPTATPSTVPSSPFTLQSDHQPKKSFDANGASTLSKLPTPTSSVPAQKTERKESTSGDKPVSHSCTTPSTSSASGLNPTSAPPTSASAVPVSPVPQSPIPPLLQDPNLLRQLLPALQATLQLNNSNVDISKINEVLTAAVTQASLQSIIHKFLTAGPSAFNITSLISQAAQLSTQAQPSNQSPMSLTSDASSPRSYVSPRISTPQTNTVPIKPLISTPPVSSQPKVSTPVVKQGPVSQSATQQPVTADKQQGHEPVSPRSLQRSSSQRSPSPGPNHTSNSSNASNATVVPQNSSARSTCSLTPALAAHFSENLIKHVQGWPADHAEKQASRLREEAHNMGTIHMSEICTELKNLRSLVRVCEIQATLREQRILFLRQQIKELEKLKNQNSFMV"}}, "key": {"[1]": {"target": "SFB-RNF40 (baculovirus) (human, UniProt O75150 1-1001)", "sequence (O75150 whole entry)": "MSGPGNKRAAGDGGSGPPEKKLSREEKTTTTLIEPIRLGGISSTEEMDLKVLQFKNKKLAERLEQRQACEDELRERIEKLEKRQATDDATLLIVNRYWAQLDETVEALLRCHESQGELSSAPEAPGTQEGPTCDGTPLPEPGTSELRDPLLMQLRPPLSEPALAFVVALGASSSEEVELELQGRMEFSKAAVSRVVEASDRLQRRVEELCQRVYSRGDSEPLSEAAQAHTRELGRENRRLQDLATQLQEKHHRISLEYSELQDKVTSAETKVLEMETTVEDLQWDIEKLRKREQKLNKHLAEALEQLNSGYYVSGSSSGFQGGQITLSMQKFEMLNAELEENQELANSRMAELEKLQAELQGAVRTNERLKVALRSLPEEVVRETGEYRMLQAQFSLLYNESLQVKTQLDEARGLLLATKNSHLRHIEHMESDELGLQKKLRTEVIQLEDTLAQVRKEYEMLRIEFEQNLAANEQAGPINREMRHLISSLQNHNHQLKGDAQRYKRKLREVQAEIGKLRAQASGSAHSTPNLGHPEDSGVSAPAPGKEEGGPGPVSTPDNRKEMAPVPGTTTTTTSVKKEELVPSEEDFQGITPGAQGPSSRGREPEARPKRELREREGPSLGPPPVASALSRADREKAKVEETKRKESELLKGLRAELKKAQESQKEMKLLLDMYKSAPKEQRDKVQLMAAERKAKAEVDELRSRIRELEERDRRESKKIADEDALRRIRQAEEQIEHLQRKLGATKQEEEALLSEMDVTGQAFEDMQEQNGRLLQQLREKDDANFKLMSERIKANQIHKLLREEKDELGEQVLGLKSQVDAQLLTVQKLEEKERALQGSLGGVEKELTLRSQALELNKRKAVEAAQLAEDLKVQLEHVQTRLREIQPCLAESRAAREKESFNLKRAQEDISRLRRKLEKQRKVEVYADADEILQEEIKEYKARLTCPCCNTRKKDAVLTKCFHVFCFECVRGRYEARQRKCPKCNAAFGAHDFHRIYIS", "test": "pull-down + SEC"}, "[2]": {"target": "SBP-RNF20 (baculovirus) (human, UniProt Q5VTR2 1-975)", "sequence (Q5VTR2 whole entry)": "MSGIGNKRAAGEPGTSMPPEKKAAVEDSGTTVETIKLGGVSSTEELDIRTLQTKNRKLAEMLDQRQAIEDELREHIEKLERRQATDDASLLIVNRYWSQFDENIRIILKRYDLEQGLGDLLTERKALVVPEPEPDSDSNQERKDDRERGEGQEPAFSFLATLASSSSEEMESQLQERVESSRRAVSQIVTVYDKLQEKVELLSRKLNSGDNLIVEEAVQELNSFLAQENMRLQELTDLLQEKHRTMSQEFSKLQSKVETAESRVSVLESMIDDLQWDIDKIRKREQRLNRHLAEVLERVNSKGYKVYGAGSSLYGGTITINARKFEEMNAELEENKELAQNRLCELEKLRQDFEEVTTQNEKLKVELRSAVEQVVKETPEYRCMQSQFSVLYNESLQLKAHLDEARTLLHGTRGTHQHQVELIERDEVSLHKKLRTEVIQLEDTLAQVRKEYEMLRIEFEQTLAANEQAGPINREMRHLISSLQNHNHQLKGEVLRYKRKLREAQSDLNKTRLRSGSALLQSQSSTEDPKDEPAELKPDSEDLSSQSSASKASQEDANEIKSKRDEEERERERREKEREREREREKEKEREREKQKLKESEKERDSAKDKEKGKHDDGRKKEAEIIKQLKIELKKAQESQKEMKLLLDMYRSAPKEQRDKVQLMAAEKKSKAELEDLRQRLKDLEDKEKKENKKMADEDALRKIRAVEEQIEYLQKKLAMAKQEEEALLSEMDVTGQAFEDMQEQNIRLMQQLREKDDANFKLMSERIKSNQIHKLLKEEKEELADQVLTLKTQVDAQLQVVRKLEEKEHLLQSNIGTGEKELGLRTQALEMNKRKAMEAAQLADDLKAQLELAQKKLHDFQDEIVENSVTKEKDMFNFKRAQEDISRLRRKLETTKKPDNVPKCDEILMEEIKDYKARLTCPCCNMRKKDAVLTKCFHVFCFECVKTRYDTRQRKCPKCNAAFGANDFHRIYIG", "test": "pull-down + SEC"}}, "data": [{"binder": "B1", "values": [{"measurement": "stoichiometry N", "setting": "[1]", "result": "~1 WAC per RNF40 (2:2)"}, {"measurement": "stoichiometry N", "setting": "[2]", "result": "~1 WAC per RNF20 (2:2)"}]}]}
